Measured values from patent US20200362026A1 (INSTITUTE FOR RESEARCH IN BIOMEDICINE, published 2020).

T1: mouse GM-CSF (mouse, UniProt P01587 18-141)
T1 sequence (looked up): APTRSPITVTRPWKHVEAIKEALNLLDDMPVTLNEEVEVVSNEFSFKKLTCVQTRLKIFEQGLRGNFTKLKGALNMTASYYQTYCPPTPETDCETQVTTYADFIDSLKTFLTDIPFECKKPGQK

T2: rat GM-CSF (rat, UniProt P48750 18-144)
T2 sequence (looked up): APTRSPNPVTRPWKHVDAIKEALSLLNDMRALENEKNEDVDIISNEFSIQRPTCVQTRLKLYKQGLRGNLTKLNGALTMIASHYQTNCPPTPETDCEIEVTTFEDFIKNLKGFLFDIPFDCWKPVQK

T3: FcγRIIa (UniProt P12318 34-317, limits assumed)
T3 construct: whole, on cells; also called FcgRIIa; Fcγ receptor IIa
T3 sequence (looked up): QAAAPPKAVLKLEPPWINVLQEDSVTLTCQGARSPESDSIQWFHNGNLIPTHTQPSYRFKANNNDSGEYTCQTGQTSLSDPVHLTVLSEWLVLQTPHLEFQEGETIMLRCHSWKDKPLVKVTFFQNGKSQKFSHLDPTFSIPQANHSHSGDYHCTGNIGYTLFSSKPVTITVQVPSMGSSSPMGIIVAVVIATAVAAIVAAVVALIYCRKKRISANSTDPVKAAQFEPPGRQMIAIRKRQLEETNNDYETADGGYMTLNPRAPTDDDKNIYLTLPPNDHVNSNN

T4: FcγRIIb (UniProt P31994 43-310, limits assumed)
T4 construct: whole, on cells; also called FcgRIIb; Fcγ receptor IIb
T4 sequence (looked up): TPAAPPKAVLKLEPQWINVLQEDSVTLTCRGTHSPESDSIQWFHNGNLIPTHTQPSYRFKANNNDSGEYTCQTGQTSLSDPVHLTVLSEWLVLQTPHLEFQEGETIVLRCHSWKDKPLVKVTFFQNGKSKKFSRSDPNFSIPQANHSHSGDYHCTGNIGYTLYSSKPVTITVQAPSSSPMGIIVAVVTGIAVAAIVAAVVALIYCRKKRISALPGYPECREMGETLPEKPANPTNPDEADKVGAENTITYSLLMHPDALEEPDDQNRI

B1: GCA7 (antibody, human IgG1, kappa, V domains shown)
VH: GVQLVQSGGGLVQPGGSLRLSCAASGFTVSTNYMSWVRQAPGKGLEWVSILYAGGVTRYADSVKTRFTISRDNSKNTLFLQMNALSAEDTAIYYCAKHYDSGYSTIDHFDSWGQGTLVTVSS
VL: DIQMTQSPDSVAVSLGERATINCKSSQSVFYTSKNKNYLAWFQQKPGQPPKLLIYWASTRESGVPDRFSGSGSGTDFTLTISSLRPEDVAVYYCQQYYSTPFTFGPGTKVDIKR
notes: also called GCA7 antibody
B2: Ts1GC1 trispecific antibody (antibody, human IgG1, kappa)
heavy: not shown
light: DIQMTQSPSTLSTSVGDRVTITCRASQNILNWLAWYQQKPGNAPNLLIYKASDLQSGVPSRFSGSGSGTEFTLTISSLQPDDFATYYCQHYNSYPLTFGGGTKVEIKRTVAAPSVFIFPPSDEQLKSGTASVVCLLNNFYPREAKVQWKVDNALQSGNSQESVTEQDSKDSTYSLSSTLTLSKADYEKHKVYACEVTHQGLSSPVTKSFNRGEC
notes: Trispecific hexavalent IgG1, construct type Ts1; specificities GCA21 + GCA7 + GCB59; also called TsGC1
B3: GCB59 (antibody, IgG1, V domains shown)
VH: EVQLVESGGDLVKAGGSLRLSCAVSGLSFSSSGMNWVRQAPGKGLEWISSISGSQNYKYYADSVKGRFVVSRDNARNFLYLQMDSLRAEDTAVYFCVGGFPYWLPPSDFSGFHVWGQGTTVTVSS
VL: SYVLTQPPSVSVAPGQTASLTCGGTNIGSKSVHWYQQKAGQAPVLVVYADNDRPSGVPERFSGSNSGNTATLTISRVEAEDESDYFCQVWDGNTDHVVFGGGTKLTVLG
notes: also called GCB59 antibody
B4: GCE536 (antibody, human IgG1, kappa, V domains shown)
VH: QLQLVQSGTEVKKPGASVKVSCKSSGYVFTSYYLVWVRQAPGQGLEWMATISPGDVNTSYEQRFQGRVTVTTDASTNTVDMELRSLRSEDTAVYYCARGPRSKPPYLYFALDVWGQGTAVTVSS
VL: EIVLTQSPGTLSLSPGETAILSCRASQSVSSSLLAWYQQKPGQAPRLLIYGASNRATGIRGRFSGSGSGTDFTLTISRLEPEDFVLYYCQHYGSRVTFGQGTKLEIKR
notes: also called GCE536 antibody
B5: GCA21 (antibody, IgG1, V domains shown)
VH: QVQLMESGGGVVQPGRSLRLSCSAFGFTFSNYPMHWVRQAPGKGLEWVAIILPDGNRKNYGRSVTGRFTISRDNSNNSLYLQMNNLTTEDTAMYYCTRDGTYYSNGGVYQTYRRFFDFWGRGTLVTVSS
VL: DIQMTQSPSTLSTSVGDRVTITCRASQNILNWLAWYQQKPGNAPNLLIYKASDLQSGVPSRFSGSGSGTEFTLTISSLQPDDFATYYCQHYNSYPLTFGGGTKVEIKR
notes: also called GCA21 antibody
B6: Namilumab (antibody, V domains shown)
VH: QVQLVQSGAEVKKPGASVKVSCKAFGYPFTDYLLHWVRQAPGQGLEWVGWLNPYSGDTNYAQKFQGRVTMTRDTSISTAYMELSRLRSDDTAVYYCTRTTLISVYFDYWGQGTMVTVSS
VL: DIQMTQSPSSVSASVGDRVTIACRASQNIRNILNWYQQRPGKAPQLLIYAASNLQSGVPSRFSGSGSGTDFTLTINSLQPEDFATYYCQQSYSMPRTFGGGTKLEIK

Experiments:
[1] = target: T1, mouse GM-CSF; assay: ELISA
[2] = target: T2, rat GM-CSF; assay: ELISA
[3] = target: T5, human GM-CSF (granulocyte macrophage-colony stimulating factor) (human, UniProt P04141 18-144); assay: ELISA on human GM-CSF
T5 construct: Soluble cytokine used in ELISA, SPR, TF-1 bioassay and immune complex formation; also called recombinant GM-CSF
T5 sequence (P04141 18-144 limits assumed): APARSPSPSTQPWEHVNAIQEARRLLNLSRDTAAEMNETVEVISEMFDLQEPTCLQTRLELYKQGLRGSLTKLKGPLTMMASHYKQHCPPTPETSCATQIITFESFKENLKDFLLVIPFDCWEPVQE
Description: All antibodies were recombinantly produced as IgG1 by transient transfection of HEK 293 Freestyle Cells (Invitrogen) using polyethylenimine (PEI). The antibodies were then tested for binding to human GM-CSF by ELISA. […] The EC50 values (ng/ml) were determined by ELISA and calculated for every sample by nonlinear regression analysis using GraphPad Prism 5 software.

[4] = target: T5, human GM-CSF (granulocyte …); assay: SPR (ProteOn), mAb captured on protein A, GM-CSF as analyte, Langmuir fit
Description: (§1) The kinetics of binding was determined by surface plasmon resonance (SPR). […] HEPES buffered saline (HBS) (10 mM HEPES, pH 7.4, 150 mM NaCl, 3 mM EDTA, 0.005% surfactant Tween-20) was used as running buffer. All injections were made at flow rate of 100 µl/min. […] Injection time and dissociation time were 120 s and 600 s, respectively. Each binding interaction of mAbs with GM-CSF was assessed using a ProteON XPR36 instrument (Biorad) and data processed with ProteOn Manager Software. Ka, Kd and KD were calculated applying the Langmuir fit model.

[5] = target: T5, human GM-CSF (granulocyte …); assay: ELISA on GM-CSF
[6] = target: T5, human GM-CSF (granulocyte …); assay: cell-based or functional assay
[7] = target: T3, FcγRIIa; assay: flow cytometry, TZM-bl cells expressing FcγRIIa, mAb alone (w/o GM-CSF)
Description: (§2) Expression of specific FcγRs was assessed by staining TZM-b1 cells with FITC-conjugated anti-CD64 (anti-FcγRI), anti-CD32 (anti-FcγRIIa and anti-FcγRIIb) and anti-CD16 (anti-FcγRIIIa) antibodies (all from BD Pharmingen). Untrasfected and transfected TZM-b1 cells were washed with staining buffer (PBS with 10% Fetal Bovine Serum and 2 mM EDTA) and seeded in 96-well-plates at a density of 50,000 cells per well. […] The LALA versions of all antibodies and a mAb with a different specificity were included as controls. Samples were incubated at 37° C. for 30 min to allow the formation of immune complexes and then cooled down to 4° C. before adding them to TZM-b1 cells for 30 min. Cells were washed twice and stained with anti-human IgG Fcγ fragment specific F(ab′)2 fragment (Jackson ImmunoResearch). Samples were analyzed on BD FACSCanto (BD Biosciences) and median intensity fluorescence was analyzed and compared between samples.
(§3) To address the engagement of Fcγ receptors, immune complexes formed between GM-CSF and multispecific antibodies were tested for their capacity to bind to TZM-b1 cells expressing FcγRIIa and FcγRIIb receptors. Multispecific antibodies were mixed with 0.05 μg/ml of GM-CSF, or staining buffer. Samples were incubated at 37° C. for 30 min to allow the formation of immune complexes and then cooled down to 4° C. before adding them to TZM-b1 cells for 30 minutes. Cells were washed twice and stained with anti-human IgG Fcγ fragment specific F(ab′)2 fragment. Samples were analyzed on BD FACSCanto (BD Biosciences) and median intensity fluorescence was analyzed and compared between samples.

[8] = target: T4, FcγRIIb; assay: flow cytometry, TZM-bl cells expressing FcγRIIb, mAb alone (w/o GM-CSF)
Description: as §2, §3

[9] = target: T3, FcγRIIa; assay: flow cytometry, TZM-bl cells expressing FcγRIIa, immune complex with low GM-CSF
Description: as §2, §3

[10] = target: T4, FcγRIIb; assay: flow cytometry, TZM-bl cells expressing FcγRIIb, immune complex with low GM-CSF
Description: as §2, §3

[11] = target: T3, FcγRIIa; assay: flow cytometry, TZM-bl cells expressing FcγRIIa, immune complex with high GM-CSF
Description: as §3

[12] = target: T4, FcγRIIb; assay: flow cytometry, TZM-bl cells expressing FcγRIIb, immune complex with high GM-CSF
Description: as §2, §3

[13] = target: T3, FcγRIIa; assay: flow cytometry, TZM-bl FcγRIIa cells; average ratio of binding in presence and in absence of GM-CSF
Description: as §3

[14] = target: T4, FcγRIIb; assay: flow cytometry, TZM-bl FcγRIIb cells; average ratio of binding in presence and in absence of GM-CSF
Description: as §2, §3

[15] = target: T5, human GM-CSF (granulocyte …); assay: SPR; GM-CSF injected at 400, 200, 100, 50, 25 nM and buffer over Ts1GC1; 120 s association, 600 s dissociation
Description: as §1
All multispecific antibodies were tested for binding to GM-CSF by ELISA.

[16] = target: T5, human GM-CSF (granulocyte …); assay: cell-based or functional assay; remark: listed apart in the source

Row | Binder | binding result [1] | binding result [2] | EC50 [3] [µg/mL] | Kd [4] [nM] | koff [4] [s⁻¹] | kon [4] [M⁻¹ s⁻¹] | IC90 less stringent conditions (50 pg/ml GM-CSF, 1,000 TF-1/well) [6] [ng/mL] | IC90 more stringent conditions (500 pg/ml GM-CSF, 1,000 TF-1/well) [6] [ng/mL] | IC90 stringent conditions (50 pg/ml GM-CSF, 10,000 TF-1/well) [6] [ng/mL] | IC90 very stringent conditions (500 pg/ml GM-CSF, 10,000 TF-1/well) [6] [ng/mL] | also measured
1 | B1 | no binding | no binding | 0.187 | 0.38 | 6e-05 | 240000 | – | – | – | – | –
2 | B2 | – | – | – | – | – | – | 0.352 | 2.96 | 0.283 | 2.81 | EC50 [5]: 0.027 µg/mL; MFI [7]: 52400 MFI; MFI [8]: 350000 MFI; MFI [9]: 118000 MFI; MFI [10]: 528000 MFI; MFI [11]: 216000 MFI; MFI [12]: 1.23e+06 MFI; Average RATIO FcgRIIa [13]: 3.18 ratio; Average RATIO FcgRIIb [14]: 2.51 ratio; Kd [15]: 0.0875 nM; koff [15]: 3.46e-05 s⁻¹; kon [15]: 395000 M⁻¹ s⁻¹
3 | B3 | no binding | no binding | 0.308 | 0.68 | 0.0012 | 1.7e+06 | – | – | – | – | –
4 | B4 | no binding | no binding | 0.0614 | 0.18 | 0.00011 | 660000 | – | – | – | – | –
5 | B5 | no binding | no binding | 0.0594 | 0.69 | 0.00065 | 950000 | – | – | – | – | –
6 | B6 | – | – | 0.0753 | 0.24 | 7.7e-05 | 310000 | 177 | 1970 | 798 | 19800 | fold greater concentration than Ts1GC2a, less stringent conditions [16]: 690 fold
